Results published in article PMC5041027 (Membranes, 2016).

Molecular target: Bacillus anthracis protective antigen, 63 kDa activated form (PA63), as ion channels in a tethered b (B. anthracis, UniProt P13423)
Assay: SPR
Details: both partners purified

Chain of Bacillus anthracis protective antigen, 63 kDa activated form (PA63), as ion channels in a tethered b (P13423 197-764): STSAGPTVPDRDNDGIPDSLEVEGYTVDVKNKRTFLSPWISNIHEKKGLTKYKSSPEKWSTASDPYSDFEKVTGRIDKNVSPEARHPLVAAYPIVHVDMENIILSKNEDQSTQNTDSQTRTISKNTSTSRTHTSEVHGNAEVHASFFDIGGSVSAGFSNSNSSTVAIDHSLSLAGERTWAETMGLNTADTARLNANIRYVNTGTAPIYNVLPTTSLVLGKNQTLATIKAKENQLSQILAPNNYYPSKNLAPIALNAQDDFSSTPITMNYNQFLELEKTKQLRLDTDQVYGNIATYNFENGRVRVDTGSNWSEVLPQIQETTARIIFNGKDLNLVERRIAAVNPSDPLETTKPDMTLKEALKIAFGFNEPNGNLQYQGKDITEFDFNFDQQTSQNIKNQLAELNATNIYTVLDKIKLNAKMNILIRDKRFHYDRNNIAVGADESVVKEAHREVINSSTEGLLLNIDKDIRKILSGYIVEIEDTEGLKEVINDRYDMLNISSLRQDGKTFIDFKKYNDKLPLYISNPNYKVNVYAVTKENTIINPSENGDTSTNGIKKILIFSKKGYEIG

B1: Bacillus anthracis Lethal Factor (natural protein)
chain: AGGHGDVGMHVKEKEKNKDENKRKDEERNKTQEEHLKEIMKHIVKIEVKGEEAVKKEAAEKLLEKVPSDVLEMYKAIGGKIYIVDGDITKHISLEALSEDKKKIKDIYGKDALLHEHYVYAKEGYEPVLVIQSSEDYVENTEKALNVYYEIGKILSRDILSKINQPYQKFLDVLNTIKNASDSDGQDLLFTNQLKEHPTDFSVEFLEQNSNEVQEVFAKAFAYYIEPQHRDVLQLYAPEAFNYMDKFNEQEINLSLEELKDQRMLARYEKWEKIKQHYQHWSDSLSEEGRGLLKKLQIPIEPKKDDIIHSLSQEEKELLKRIQIDSSDFLSTEEKEFLKKLQIDIRDSLSEEEKELLNRIQVDSSNPLSEKEKEFLKKLKLDIQPYDINQRLQDTGGLIDSPSINLDVRKQYKRDIQNIDALLHQSIGSTLYNKIYLYENMNINNLTATLGADLVDSTDNTKINRGIFNEFKKNFKYSISSNYMIVDINERPALDNERLKWRIQLSPDTRAGYLENGKLILQRNIGLEIKDVQIIKQSEKEYIRIDAKVVPKSKIDTKIQEAQLNINQEWNKALGLPKYTKLITFNVHNRYASNIVESAYLILNEWKNNIQSDLIKKVTNYLVDGNGRFVFTDITLPNIAEQYTHQDEIYEQVHSKGLYVPESRSILLHGPSKGVELRNDSEGFIHEFGHAVDDYAGYLLDKNQSDLVTNSKKFIDIFKEEGSNLTSYGRTNEAEFFAEAFRLMHSTDHAERLKVQKNAPKTFQFINDQIKFIINS
stoichiometry N: 2 LF molecules per PA63 channel
